Data published in the Immune Epitope Database (IEDB).
Blank lines part the entries; values can stand above or below the sequence they belong to.

How the values were obtained:
HLA-A*01:01 [1] = experiment: IEDB peptide-MHC binding, purified MHC/competitive/fluorescence; filed as Kd, often an IC50 or EC50 that approximates it; ≥ and ≤ were set here for values at or beyond the usual limits of such assays; details: source organism: West Nile virus
HLA-A*25:01 [2] = experiment: IEDB peptide-MHC binding, purified MHC/direct/fluorescence; filed as Kd, often an IC50 or EC50 that approximates it; ≥ and ≤ were set here for values at or beyond the usual limits of such assays; details: source organism: West Nile virus strain PTRoxo
HLA-A*02:03 = experiment: as above
HLA-A*29:02 [3] = experiment: as above; details: source organism: West Nile virus strain PTRoxo
HLA-A*02:01 [4] = experiment: as above
HLA-A*80:01 = experiment: as above; details: source organism: West Nile virus
HLA-A*02:11 = experiment: as above
HLA-B*51:01 [5] = experiment: as above; details: source organism: West Nile virus strain PTRoxo
HLA-B*58:01 [6] = experiment: as above
HLA-B*40:01 = experiment: as above
HLA-A*02:12 = experiment: as above
HLA-B*07:02 [7] = experiment: as above
HLA-A*02:19 = experiment: as above
HLA-B*15:02 = experiment: as above; details: source organism: dengue virus type 3
HLA-B*46:01 = experiment: as above
HLA-A*02:16 = experiment: as above; details: source organism: Influenza A virus(A/swine/Henan/2/2004(H9N2))
HLA-B*08:01 [8] = experiment: as above; details: source organism: Influenza A virus (A/tern/Australia/1/04(H2N5))
HLA-A*03:01 [9] = experiment: as above; details: source organism: Influenza A virus (A/tern/Australia/1/04(H2N5))
HLA-A*01:01 [10] = experiment: as above; details: source organism: Influenza A virus (A/tern/Australia/1/04(H2N5))
HLA-A*11:01 [11] = experiment: as above; details: source organism: Influenza A virus (A/tern/Australia/1/04(H2N5))
HLA-A*02:06 = experiment: as above; details: source organism: Influenza A virus(A/swine/Henan/2/2004(H9N2))
HLA-B*27:05 = experiment: as above; details: source organism: Influenza A virus (A/tern/Australia/1/04(H2N5))
HLA-B*44:02 = experiment: as above; details: source organism: Influenza A virus (A/tern/Australia/1/04(H2N5))
HLA-A*24:02 [12] = experiment: as above; details: source organism: Influenza A virus (A/tern/Australia/1/04(H2N5))
HLA-B*18:01 [13] = experiment: as above; details: source organism: Influenza A virus (A/tern/Australia/1/04(H2N5))
HLA-B*15:01 = experiment: as above; details: source organism: Influenza A virus (A/tern/Australia/1/04(H2N5))
HLA-B*35:01 = experiment: IEDB peptide-MHC binding, purified MHC/competitive/fluorescence; ≥ and ≤ were set here for values at or beyond the usual limits of such assays; details: source organism: Pan troglodytes
HLA-A*31:01 = experiment: as above; details: source organism: Pan troglodytes
HLA-B*08:01 [14] = experiment: as above; details: source organism: Pan troglodytes
HLA-A*68:02 = experiment: as above; details: source organism: Pan troglodytes
HLA-A*03:01 [15] = experiment: as above; details: source organism: Pan troglodytes
HLA-A*25:01 [16] = experiment: as above; details: source organism: Pan troglodytes
HLA-B*14:02 = experiment: as above; details: source organism: Pan troglodytes
HLA-A*01:01 [17] = experiment: as above; details: source organism: Pan troglodytes
HLA-A*11:01 [18] = experiment: as above; details: source organism: Pan troglodytes
HLA-A*29:02 [19] = experiment: as above; details: source organism: Pan troglodytes
HLA-A*02:01 [20] = experiment: as above; details: source organism: Pan troglodytes
HLA-B*51:01 [21] = experiment: as above; details: source organism: Pan troglodytes
HLA-A*24:02 [22] = experiment: as above; details: source organism: Pan troglodytes
HLA-B*40:02 = experiment: as above; details: source organism: Pan troglodytes
HLA-B*58:01 [23] = experiment: as above; details: source organism: Pan troglodytes
HLA-B*18:01 [24] = experiment: as above; details: source organism: Pan troglodytes
HLA-B*44:03 = experiment: as above; details: source organism: Pan troglodytes
HLA-B*37:01 = experiment: as above; details: source organism: Pan troglodytes
HLA-B*53:01 = experiment: as above; details: source organism: Pan troglodytes
HLA-B*07:02 [25] = experiment: as above; details: source organism: Pan troglodytes
HLA-C*14:02 = experiment: IEDB peptide-MHC binding, purified MHC/direct/fluorescence; filed as Kd, often an IC50 or EC50 that approximates it; ≥ and ≤ were set here for values at or beyond the usual limits of such assays; details: source organism: Homo sapiens
[26] = source organism: West Nile virus strain PTRoxo
[27] = source organism: Influenza A virus(A/swine/Henan/2/2004(H9N2))
[28] = source organism: Influenza A virus (A/tern/Australia/1/04(H2N5))

Sequence: MTRGLLGSY
Kd (HLA-A*01:01 [1]): 0.519 µM
Kd (HLA-A*25:01 [2]): 0.009 µM
Kd (HLA-A*02:03; [26]): ≥ 20 µM
Kd (HLA-A*29:02 [3]): 0.099 µM
Kd (HLA-A*02:01 [4]; [26]): ≥ 20 µM
Kd (HLA-A*80:01): 0.173 µM
Kd (HLA-A*02:11; [26]): ≥ 20 µM
Kd (HLA-B*51:01 [5]): ≥ 20 µM
Kd (HLA-B*58:01 [6]; [26]): ≥ 20 µM
Kd (HLA-B*40:01; [26]): ≥ 20 µM
Kd (HLA-A*02:12; [26]): ≥ 20 µM
Kd (HLA-B*07:02 [7]; [26]): ≥ 20 µM
Kd (HLA-A*02:19; [26]): ≥ 20 µM

Sequence: GMGEAAAIF
Kd (HLA-B*15:02): 0.158 µM
Kd (HLA-B*46:01; source organism: Dengue virus 1 Singapore/S275/1990): ≥ 20 µM

Sequence: LLTEVETYV
Kd (HLA-A*02:16): ≤ 0.001 µM
Kd (HLA-B*08:01 [8]): ≥ 20 µM
Kd (HLA-A*03:01 [9]): ≥ 20 µM
Kd (HLA-A*01:01 [10]): ≥ 20 µM
Kd (HLA-A*11:01 [11]): ≥ 20 µM
Kd (HLA-A*02:03; [27]): ≤ 0.001 µM
Kd (HLA-A*02:01 [4]; source organism: Influenza A virus (A/Puerto Rico/8/34/Mount Sinai(H1N1))): 0.012 µM
Kd (HLA-A*02:06): ≤ 0.001 µM
Kd (HLA-B*27:05): ≥ 20 µM
Kd (HLA-A*02:11; [27]): ≤ 0.001 µM
Kd (HLA-B*44:02): ≥ 20 µM
Kd (HLA-A*24:02 [12]): ≥ 20 µM
Kd (HLA-B*58:01 [6]; [28]): ≥ 20 µM
Kd (HLA-B*40:01; [28]): ≥ 20 µM
Kd (HLA-B*18:01 [13]): ≥ 20 µM
Kd (HLA-B*15:01): ≥ 20 µM
Kd (HLA-B*46:01; [28]): ≥ 20 µM
Kd (HLA-A*02:12; [27]): ≤ 0.001 µM
Kd (HLA-B*07:02 [7]; [28]): ≥ 20 µM
Kd (HLA-A*02:19; [27]): 0.002 µM

IC50 (HLA-B*35:01): 0.0907 µM
IC50 (HLA-A*31:01): ≥ 20 µM
IC50 (HLA-B*08:01 [14]): ≥ 20 µM
IC50 (HLA-A*68:02): ≥ 20 µM
IC50 (HLA-A*03:01 [15]): ≥ 20 µM
IC50 (HLA-A*25:01 [16]): ≥ 20 µM
IC50 (HLA-B*14:02): ≥ 20 µM
IC50 (HLA-A*01:01 [17]): ≥ 20 µM
IC50 (HLA-A*11:01 [18]): ≥ 20 µM
IC50 (HLA-A*29:02 [19]): 0.252 µM
IC50 (HLA-A*02:01 [20]): ≥ 20 µM
IC50 (HLA-B*51:01 [21]): ≥ 20 µM
IC50 (HLA-A*24:02 [22]): ≥ 20 µM
IC50 (HLA-B*40:02): ≥ 20 µM
IC50 (HLA-B*58:01 [23]): ≥ 20 µM
IC50 (HLA-B*18:01 [24]): ≥ 20 µM
IC50 (HLA-B*44:03): ≥ 20 µM
IC50 (HLA-B*37:01): ≥ 20 µM
IC50 (HLA-B*53:01): ≥ 20 µM
IC50 (HLA-B*07:02 [25]): ≥ 20 µM
Kd (HLA-C*14:02): ≥ 20 µM
Sequence: RPPYSSYGY
